“And” between values parts separate entries of the source, which are not always exact repeats. Equal values may be shown once.
B1: Chitosanase, P33665 (parent)
chain: MHSQHRTARIALAVVLTAIPASLATAGVGYASTQASTAVKAGAGLDDPHKKEIAMELVSSAENSSLDWKAQYKYIEDIGDGRGYTGGIIGFCSGTGDMLELVQHYTDLEPGNILAKYLPALKKVNGSASHSGLGTPFTKDWATAAKDTVFQQAQNDERDRVYFDPAVSQAKADGLRALGQFAYYDAIVMHGPGNDPTSFGGIRKTAMKKARTPAQGGDETTYLNAFLDARKAAMLTEAAHDDTSRVDTEQRVFLKAGNLDLNPPLKWKTYGDPYVINS

Variants of: B1
Conditions: Streptomyces sp. (strain N174); pH 7; 42.7 °C; Thermal; CD; sodium phosphate 50 mM; transition: 3; reversible: yes(79%); structure 1CHK; whole UniProt chain shown

| Variant | ddG of mutation (higher = less stable) [kcal/mol] |
| --- | --- |
| MHSQHRTARIALAVVLTAIPASLATAGVGYASTQASTAVKAGAGLDDPHKKEIAMELVSSAENSSLDWKAQYKYIEDIGDGRGYTGGIIGFCSGTGDMLELVQHYTDLEPGNILAKYLPALKKVNGSASHSGLGTPFTKDFATAAKDTVFQQAQNDERDRVYFDPAVSQAKADGLRALGQFAYYDAIVMHGPGNDPTSFGGIRKTAMKKARTPAQGGDETTYLNAFLDARKAAMLTEAAHDDTSRVDTEQRVFLKAGNLDLNPPLKWKTYGDPYVINS [W141F] | 3.91 |
| MHSQHRTARIALAVVLTAIPASLATAGVGYASTQASTAVKAGAGLDDPHKKEIAMELVSSAENSSLDWKAQYKYIEDIGDGRGYTGGIIGFCSGTGDMLELVQHYTDLEPGNILAKYLPALKKVNGSASHSGLGTPFTKDWATAAKDTVFQQAQNDERDRVYFDPAVSQAKADGLRALGQFAYYDAIVMHGPGNDPTSFGGIRKTAMKKARTPAQGGDETTYLNAFLDARKAAMLTEAAHDDTSRVDTEQRVFLKAGNLDLNPPLKFKTYGDPYVINS [W267F] | 2.97 |

Same assay, conditions: Streptomyces sp. (strain N174); pH 7; 43.2 °C; Thermal; Fluorescence; sodium phosphate 50 mM; reversible: yes(77%); structure 1CHK; whole UniProt chain shown

| Variant | ddG of mutation (higher = less stable) [kcal/mol] |
| --- | --- |
| MHSQHRTARIALAVVLTAIPASLATAGVGYASTQASTAVKAGAGLDDPHKKEIAMELVSSAENSSLDWKAQYKYIEDIGDGRGYTGGIIGFCSGTGDMLELVQHYTDLEPGNILAKYLPALKKVNGSASHSGLGTPFTKDFATAAKDTVFQQAQNDERDRVYFDPAVSQAKADGLRALGQFAYYDAIVMHGPGNDPTSFGGIRKTAMKKARTPAQGGDETTYLNAFLDARKAAMLTEAAHDDTSRVDTEQRVFLKAGNLDLNPPLKWKTYGDPYVINS [W141F] | 4.27 |

Same assay, conditions: Streptomyces sp. (strain N174); pH 7; 52.2 °C; Thermal; CD; sodium phosphate 50 mM; transition: 3; reversible: yes(79%); structure 1CHK; whole UniProt chain shown

| Variant | ddG of mutation (higher = less stable) [kcal/mol] |
| --- | --- |
| MHSQHRTARIALAVVLTAIPASLATAGVGYASTQASTAVKAGAGLDDPHKKEIAMELVSSAENSSLDWKAQYKYIEDIGDGRGYTGGIIGFCSGTGDMLELVQHYTDLEPGNILAKYLPALKKVNGSASHSGLGTPFTKDFATAAKDTVFQQAQNDERDRVYFDPAVSQAKADGLRALGQFAYYDAIVMHGPGNDPTSFGGIRKTAMKKARTPAQGGDETTYLNAFLDARKAAMLTEAAHDDTSRVDTEQRVFLKAGNLDLNPPLKWKTYGDPYVINS [W141F] | 1.89 |
| MHSQHRTARIALAVVLTAIPASLATAGVGYASTQASTAVKAGAGLDDPHKKEIAMELVSSAENSSLDWKAQYKYIEDIGDGRGYTGGIIGFCSGTGDMLELVQHYTDLEPGNILAKYLPALKKVNGSASHSGLGTPFTKDWATAAKDTVFQQAQNDERDRVYFDPAVSQAKADGLRALGQFAYYDAIVMHGPGNDPTSFGGIRKTAMKKARTPAQGGDETTYLNAFLDARKAAMLTEAAHDDTSRVDTEQRVFLKAGNLDLNPPLKFKTYGDPYVINS [W267F] | 1.31 |

Same assay, conditions: Streptomyces sp. (strain N174); pH 7; Thermal; CD; sodium phosphate 50 mM; transition: 3; reversible: yes(79%); structure 1CHK; whole UniProt chain shown

| Variant | change of melting temperature, mutant - wild type (higher = more stable) | unfolding enthalpy (van 't Hoff) |
| --- | --- | --- |
| MHSQHRTARIALAVVLTAIPASLATAGVGYASTQASTAVKAGAGLDDPHKKEIAMELVSSAENSSLDWKAQYKYIEDIGDGRGYTGGIIGFCSGTGDMLELVQHYTDLEPGNILAKYLPALKKVNGSASHSGLGTPFTKDFATAAKDTVFQQAQNDERDRVYFDPAVSQAKADGLRALGQFAYYDAIVMHGPGNDPTSFGGIRKTAMKKARTPAQGGDETTYLNAFLDARKAAMLTEAAHDDTSRVDTEQRVFLKAGNLDLNPPLKWKTYGDPYVINS [W141F] | -7.1 °C and -7.5 °C | 170 kcal/mol and 80 kcal/mol |
| MHSQHRTARIALAVVLTAIPASLATAGVGYASTQASTAVKAGAGLDDPHKKEIAMELVSSAENSSLDWKAQYKYIEDIGDGRGYTGGIIGFCSGTGDMLELVQHYTDLEPGNILAKYLPALKKVNGSASHSGLGTPFTKDWATAAKDTVFQQAQNDERDRVYFDPAVSQAKADGLRALGQFAYYDAIVMHGPGNDPTSFGGIRKTAMKKARTPAQGGDETTYLNAFLDARKAAMLTEAAHDDTSRVDTEQRVFLKAGNLDLNPPLKFKTYGDPYVINS [W267F] | -6.8 °C and -6.4 °C | 135 kcal/mol and 65 kcal/mol |

Same assay, conditions: Streptomyces sp. (strain N174); pH 7; 43.2 °C; Thermal; Fluorescence; sodium phosphate 50 mM; reversible: yes(81%); structure 1CHK; whole UniProt chain shown

| Variant | ddG of mutation (higher = less stable) [kcal/mol] |
| --- | --- |
| MHSQHRTARIALAVVLTAIPASLATAGVGYASTQASTAVKAGAGLDDPHKKEIAMELVSSAENSSLDWKAQYKYIEDIGDGRGYTGGIIGFCSGTGDMLELVQHYTDLEPGNILAKYLPALKKVNGSASHSGLGTPFTKDWATAAKDTVFQQAQNDERDRVYFDPAVSQAKADGLRALGQFAYYDAIVMHGPGNDPTSFGGIRKTAMKKARTPAQGGDETTYLNAFLDARKAAMLTEAAHDDTSRVDTEQRVFLKAGNLDLNPPLKFKTYGDPYVINS [W267F] | 2.51 |

Same assay, conditions: Streptomyces sp. (strain N174); pH 7; Thermal; Fluorescence; sodium phosphate 50 mM; reversible: yes(81%); structure 1CHK; whole UniProt chain shown

| Variant | Tm [°C] | change of melting temperature, mutant - wild type (higher = more stable) [°C] | unfolding enthalpy (van 't Hoff) [kcal/mol] |
| --- | --- | --- | --- |
| MHSQHRTARIALAVVLTAIPASLATAGVGYASTQASTAVKAGAGLDDPHKKEIAMELVSSAENSSLDWKAQYKYIEDIGDGRGYTGGIIGFCSGTGDMLELVQHYTDLEPGNILAKYLPALKKVNGSASHSGLGTPFTKDWATAAKDTVFQQAQNDERDRVYFDPAVSQAKADGLRALGQFAYYDAIVMHGPGNDPTSFGGIRKTAMKKARTPAQGGDETTYLNAFLDARKAAMLTEAAHDDTSRVDTEQRVFLKAGNLDLNPPLKFKTYGDPYVINS [W267F] | 37.3 | -5.9 | 132 |
